Measurements: publication PMC6735613

Target: recombinant human MMP-9 catalytic domain (residues 112-445) (human) (UniProt P14780)
UniProt P14780, sequence (P14780 112-445): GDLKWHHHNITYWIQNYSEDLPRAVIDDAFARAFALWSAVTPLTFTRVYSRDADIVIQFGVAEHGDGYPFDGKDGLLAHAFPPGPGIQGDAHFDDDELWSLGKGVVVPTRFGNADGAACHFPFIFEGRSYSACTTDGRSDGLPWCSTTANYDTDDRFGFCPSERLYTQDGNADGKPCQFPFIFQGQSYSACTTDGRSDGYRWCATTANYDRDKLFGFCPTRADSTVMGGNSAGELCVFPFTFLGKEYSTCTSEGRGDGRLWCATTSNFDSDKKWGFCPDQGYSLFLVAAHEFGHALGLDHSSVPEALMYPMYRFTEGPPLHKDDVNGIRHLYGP

Kcat/Km of hydrolysis of the FRET-tagged peptide by the MMP-9 catalytic domain: 8650 M⁻¹ s⁻¹
B1: VCAN p.1335-1347 FRET substrate (5-FAM-…-QXL) (peptide)
peptide: GRMSDLSMIGHPI
modifications: 5-FAM on the N-terminus, QXL quencher on the C-terminus (5-FAM-GRMSDLSMIGHPI-QXL)
